# Key:
# [1] = biological target: biotinylated human FcRn (hFcRn; p51 subunit residues 24-297 with C-terminal Avi-tag, β2-m residues 21-119) (human) (UniProt P55899); assay: Biacore SPR, pH 6.0, apparent affinity
# [2] = biological target: biotinylated human FcRn (hFcRn; p51 subunit residues 24-297 with C-terminal Avi-tag, β2-m residues 21-119) (human) (UniProt P55899); assay: Biacore SPR, pH 7.4, steady state, 1000 nM antibody
# [3] = biological target: biotinylated human FcRn (hFcRn; p51 subunit residues 24-297 with C-terminal Avi-tag, β2-m residues 21-119) (human) (UniProt P55899); assay: Biacore SPR; second ratio column (inverse of c7)
# [4] = biological target: biotinylated human FcRn (hFcRn; p51 subunit residues 24-297 with C-terminal Avi-tag, β2-m residues 21-119) (human) (UniProt P55899); assay: Biacore SPR; pH 6.0 affinity (M^-1) over pH 7.4 steady state RU
# rFcRn (rat) [5] = biological target: rFcRn (rat) (UniProt P13599); assay: SPR Biacore, pH 7.4
# rFcRn (rat), sequence (P13599 23-298 limits assumed, form in doubt, chain 1 of 2): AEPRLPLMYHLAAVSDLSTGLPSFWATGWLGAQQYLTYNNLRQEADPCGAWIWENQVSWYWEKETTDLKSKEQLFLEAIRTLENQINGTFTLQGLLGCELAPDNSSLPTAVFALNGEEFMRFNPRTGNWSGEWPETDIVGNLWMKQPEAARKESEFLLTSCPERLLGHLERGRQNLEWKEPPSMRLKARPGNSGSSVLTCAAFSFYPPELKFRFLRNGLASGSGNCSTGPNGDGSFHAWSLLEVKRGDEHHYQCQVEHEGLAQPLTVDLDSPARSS
# rFcRn (rat), sequence (P07151 21-119 limits assumed, form in doubt, chain 2 of 2, further chain): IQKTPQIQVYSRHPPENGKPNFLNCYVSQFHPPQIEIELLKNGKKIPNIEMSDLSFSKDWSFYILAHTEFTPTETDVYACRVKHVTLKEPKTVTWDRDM
# [6] = biological target: biotinylated hFcRn (human) (UniProt P55899); assay: SPR Biacore, pH 7.4
# biotinylated hFcRn (human), sequence (P55899 24-297 limits assumed, form in doubt, chain 1 of 2): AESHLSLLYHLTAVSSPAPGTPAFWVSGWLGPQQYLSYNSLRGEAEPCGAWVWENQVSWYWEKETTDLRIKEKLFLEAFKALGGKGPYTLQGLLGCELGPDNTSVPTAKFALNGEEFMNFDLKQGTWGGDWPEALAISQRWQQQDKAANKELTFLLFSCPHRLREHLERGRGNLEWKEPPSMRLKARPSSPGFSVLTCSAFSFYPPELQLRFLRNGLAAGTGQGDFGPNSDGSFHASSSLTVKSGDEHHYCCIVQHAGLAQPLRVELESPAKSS
# biotinylated hFcRn (human), sequence (P61769 21-119 limits assumed, form in doubt, chain 2 of 2, further chain): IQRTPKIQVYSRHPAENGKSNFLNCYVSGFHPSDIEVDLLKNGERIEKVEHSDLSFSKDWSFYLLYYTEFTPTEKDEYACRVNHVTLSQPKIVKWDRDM
# rFcRn (rat) [7] = biological target: rFcRn (rat) (UniProt P13599); assay: SPR Biacore, pH 6.0
# [8] = biological target: biotinylated hFcRn (human) (UniProt P55899); assay: SPR Biacore, pH 6.0
# biotinylated human FcRn (hFcRn; p51 subunit residues 24-297 with C-terminal Avi-tag, β2-m residues 21-119) (human), sequence (P55899 24-297, form in doubt, chain 1 of 2): as the sequence (P55899 24-297 limits assumed, form in doubt, chain 1 of 2) above
# biotinylated human FcRn (hFcRn; p51 subunit residues 24-297 with C-terminal Avi-tag, β2-m residues 21-119) (human), sequence (P61769 21-119, form in doubt, chain 2 of 2, further chain): as the sequence (P61769 21-119 limits assumed, form in doubt, chain 2 of 2, further chain) above
Substance,Ka [1],"Steady State Binding, pH 7.4 (RU) [2]",Ratio (pH 6.0/pH 7.4) [4],Ratio (pH 7.4/pH 6.0) [3],other results
mAb1 MTWF variant (T307W/N434F) (antibody),2.62e+07 M⁻¹,30.5 RU,859000,–,Ratio (pH 6.0/pH 7.4) [3]: 1.16e-06
mAb1 MTWY variant (T307W/N434Y) (antibody),4.65e+07 M⁻¹,37.2 RU,1.25e+06,–,Ratio (pH 6.0/pH 7.4) [3]: 8e-07
mAb1 T256D/N434F (antibody),–,–,–,–,Steady State RU (rFcRn (rat) [5]): 63 RU; Steady State RU [6]: 29.2 RU; Kd (rFcRn (rat) [7]): 1.78 nM; koff (rFcRn (rat) [7]): 0.00039 s⁻¹; kon (rFcRn (rat) [7]): 218000 M⁻¹ s⁻¹; Kd [8]: 29.9 nM; koff [8]: 0.029 s⁻¹; kon [8]: 968000 M⁻¹ s⁻¹
mAb1 T256D/N434Y (antibody),–,–,–,–,Steady State RU (rFcRn (rat) [5]): 71.6 RU; Steady State RU [6]: 37.1 RU; Kd (rFcRn (rat) [7]): 0.6 nM; koff (rFcRn (rat) [7]): 0.00025 s⁻¹; kon (rFcRn (rat) [7]): 413000 M⁻¹ s⁻¹; Kd [8]: 15.6 nM; koff [8]: 0.0285 s⁻¹; kon [8]: 1.83e+06 M⁻¹ s⁻¹
mAb1 T256E/N434F (antibody),–,–,–,–,Steady State RU (rFcRn (rat) [5]): 59 RU; Steady State RU [6]: 23.3 RU; Kd (rFcRn (rat) [7]): 7.53 nM; koff (rFcRn (rat) [7]): 0.00081 s⁻¹; kon (rFcRn (rat) [7]): 108000 M⁻¹ s⁻¹; Kd [8]: 78.2 nM; koff [8]: 0.0419 s⁻¹; kon [8]: 536000 M⁻¹ s⁻¹
mAb1 T256E/N434Y (antibody),–,–,–,–,Steady State RU (rFcRn (rat) [5]): 62.2 RU; Steady State RU [6]: 26.8 RU; Kd (rFcRn (rat) [7]): 7.71 nM; koff (rFcRn (rat) [7]): 0.00098 s⁻¹; kon (rFcRn (rat) [7]): 127000 M⁻¹ s⁻¹; Kd [8]: 62.6 nM; koff [8]: 0.0393 s⁻¹; kon [8]: 628000 M⁻¹ s⁻¹
mAb1 T256E/T307Q (antibody),–,–,–,–,Steady State RU (rFcRn (rat) [5]): 23.4 RU; Kd (rFcRn (rat) [7]): 10.7 nM; Kd [8]: 499 nM
mAb1 T256E/T307W (antibody),–,–,–,–,Steady State RU (rFcRn (rat) [5]): 33 RU; Kd (rFcRn (rat) [7]): 10.6 nM; Kd [8]: 323 nM
mAb1 T307Q/N434F (antibody),–,–,–,–,Steady State RU (rFcRn (rat) [5]): 62.5 RU; Steady State RU [6]: 34.2 RU; Kd (rFcRn (rat) [7]): 3.89 nM; koff (rFcRn (rat) [7]): 0.0004 s⁻¹; kon (rFcRn (rat) [7]): 104000 M⁻¹ s⁻¹; Kd [8]: 42.9 nM; koff [8]: 0.0246 s⁻¹; kon [8]: 574000 M⁻¹ s⁻¹
mAb1 YDQN variant (M252Y/T256D/T307Q) (antibody),8.7e+06 M⁻¹,19.8 RU,439000,2.28e-06,–
mAb1 YDTF variant (M252Y/T256D/N434F) (antibody),2.96e+07 M⁻¹,57.7 RU,513000,1.95e-06,–
mAb1 YDTN variant (M252Y/T256D) (antibody),1.07e+07 M⁻¹,9.7 RU,1.1e+06,–,Ratio (pH 6.0/pH 7.4) [3]: 9.07e-07
mAb1 YDWN variant (M252Y/T256D/T307W) (antibody),1.01e+07 M⁻¹,25.9 RU,390000,2.56e-06,–
mAb1 YEQN variant (M252Y/T256E/T307Q) (antibody),4.59e+06 M⁻¹,15.2 RU,302000,3.31e-06,–
mAb1 YETN variant (M252Y/T256E) (antibody),7.81e+06 M⁻¹,9.8 RU,797000,1.25e-06,–
mAb1 YETY variant (M252Y/T256E/N434Y) (antibody),3.34e+07 M⁻¹,22.6 RU,1.48e+06,6.77e-07,–
mAb1 YEWN variant (M252Y/T256E/T307W) (antibody),6.41e+06 M⁻¹,69.6 RU,92100,1.09e-05,–
mAb1 YTE variant (M252Y/S254T/T256E) (antibody),2.92e+06 M⁻¹,13.2 RU,221000,–,Ratio (pH 6.0/pH 7.4) [3]: 4.52e-06
mAb1 YTQF variant (M252Y/T307Q/N434F) (antibody),5.65e+07 M⁻¹,59.9 RU,943000,1.06e-06,–
mAb1 YTQN variant (M252Y/T307Q) (antibody),3.6e+06 M⁻¹,10.6 RU,340000,–,Ratio (pH 7.4 steady state RU / pH 6.0 affinity) [3]: 2.94e-06
mAb1 YTQY variant (M252Y/T307Q/N434Y) (antibody),6.33e+07 M⁻¹,71.5 RU,885000,1.13e-06,–
mAb1 YTTF variant (M252Y/N434F) (antibody),5.56e+07 M⁻¹,43.8 RU,1.27e+06,7.88e-07,–
mAb1 YTWF variant (M252Y/T307W/N434F) (antibody),6.54e+07 M⁻¹,62.6 RU,1.04e+06,–,Ratio (pH 7.4 steady-state RU / pH 6.0 affinity) [3]: 9.57e-07
mAb1 YTWN variant (M252Y/T307W) (antibody),8.47e+06 M⁻¹,15.9 RU,533000,1.88e-06,–

# — US20190263934A1
